Assay results as given in US20100129315A1 (published 2010).

Biological target: human MN protein, entire extra-cellular domain with a C-terminal histag, expressed in HKB-11 cells (human, UniProt Q16790 38-414)
Assay: BIAcore; crude Fab

Kd: 25 nM
B1: 5aa3 Crude Fab (antibody, V domains shown)
VH: ELVQSGAEVKKPGESLKISCKGSGYSFTGYISWVRQAPGKGLEWMGIIYPGDSYTNYSPSFQGQVTISADKSISTAYLQWSSLKASDTAMYYCARYSGPNWDVMDSWGQGTLVTVSS
VL: DIVLTQPPSVSGAPGQRVTISCSGSSSNIGSYYVNWYQQLPGTAPKLLIYADDKRPSGVPDRFSGSKSGTSASLAITGLQSEDEADYYCQSYDSTKDDSVFGGGTKL
